The source of these data is US20260103532A1 (published 2026).

The test concerns the target CD40 (UniProt P25942 21-193, limits assumed). The test is described as follows: not stated (affinity given in the study drug description; no method).

CD40, sequence (P25942 21-193 limits assumed): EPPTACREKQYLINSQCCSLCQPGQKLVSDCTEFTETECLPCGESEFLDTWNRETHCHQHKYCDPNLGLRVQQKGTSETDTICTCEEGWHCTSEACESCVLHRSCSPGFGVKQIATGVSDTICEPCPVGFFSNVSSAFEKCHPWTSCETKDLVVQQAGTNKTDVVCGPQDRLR

B1: KPL-404 (antibody, human IgG4 S228P, kappa, V domains shown)
VH: QVQLVQSGAEVKKPGASVKVSCKASGYTFTNYWMHWVRQAPGQRLEWIGYINPSNDYTKYNQKFKDRATLTADKSANTAYMELSSLRSEDTAVYYCARQGFPYWGQGTLVTVSS
VL: EIVLTQSPATLSLSPGERATLSCSASSSVSYMHWYQQKPGQAPRRWIYDTSKLASGVPARFSGSGSGTDYTLTISSLEPEDFAVYYCHQLSSDPFTFGGGTKVEIKR
notes: also called humanized anti-CD40 antibody; KPL-404 drug product
As for B1, the affinity, expressed as Kd, was 7.2 nM.
